Laboratory results as given in paper PMC4224615.

Columns and labels:
[1] = target: BG505 SOSIP.664 trimer (HIV-1 BG505); assay: negative-stain electron microscopy
[2] = target: BG505 SOSIP.664 trimer, captured by anti-histidine (SPR of Fig. 2d) (HIV-1 BG505); assay: SPR

Row | Substance | stoichiometry N (Fabs per trimer) [1] | Kd [2] [nM]
1 | 35O22 Fab | 3 | –
2 | 35O22 antibody (full-length IgG) | – | 5.6
